Experimental data taken from publication PMC2564605 (Journal of molecular biology, 2008).

Target: the molecule itself
Experiment: SDS-PAGE and Western blot

B1: His-tagged aquaporin-9 (natural protein, UniProt P56627 1-295, looked up)
chain: MPSEKDGAKKSLMQRLALKSRIAKETLSEFLGTFIMIVLGCSSIAQAVLSRERFGGIITINIGFASAVVMALYVTFGISGGHINPAVSFAMCAFGRMEWFKFPFYVGAQFLGAFVGAATVFGIYYDGLMAFAGGKLLVVGENATAFIFATYPAPFISTPGAFVDQVVSTMFLLLIVFAMFDSRNLGVPRGLEPVVIGLLIIVLSCSLGLNSGCAMNPARDLSPRLFTALAGWGFEVFTVGNNFWWIPVVGPMIGAFLGGLIYILFIQMHHSKLDPDMKAEPSENNLEKHELSVIM
modifications: unglycosylated (~32 kDa) and glycosylated (~35 kDa) forms
stoichiometry N: 2
